This assay addresses T1, mouse 4-1BB–Fc protein (mouse, UniProt P20334 24-187).
T1 chain: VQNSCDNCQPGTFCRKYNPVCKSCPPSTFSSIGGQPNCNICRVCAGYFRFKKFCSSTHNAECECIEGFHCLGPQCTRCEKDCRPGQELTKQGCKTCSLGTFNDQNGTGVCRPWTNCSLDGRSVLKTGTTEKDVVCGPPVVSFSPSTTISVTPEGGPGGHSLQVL
Put plainly: SPR.

B1: mouse siglec-4–HIS protein (domain or fragment)
chain: GHWGAWMPSTISAFEGTCVSIPCRFDFPDELRPAVVHGVWYFNSPYPKNYPPVVFKSRTQVVHESFQGRSRLLGDLGLRNCTLLLSTLSPELGGKYYFRGDLGGYNQYTFSEHSVLDIVNTPNIVVPPEVVAGTEVEVSCMVPDNCPELRPELSWLGHEGLGEPTVLGRLREDEGTWVQVSLLHFVPTREANGHRLGCQAAFPNTTLQFEGYASLDVKYPPVIVEMNSSVEAIEGSHVSLLCGADSNPPPLLTWMRDGMVLREAVAKSLYLDLEEVTPGEDGVYACLAENAYGQDNRTVELSVMYAPWKPTVNGTVVAVEGETVSILCSTQSNPDPILTIFKEKQILATVIYESQLQLELPAVTPEDDGEYWCVAENQYGQRATAFNLSVEFAPIILLESHCAAARDTVQCLCVVKSNPEPSVAFELPSRNVTVNETEREFVYSERSGLLLTSILTIRGQAQAPPRVICTSRNLYGTQSLELPFQGAHRLMWAKIGP
On to B1, for which the koff – broadly, a measure of how fast the partners let go of each other – turned out to be 0.011 s⁻¹.
